# Laboratory results: patent publication US20240101717A1 (BIONECURE THERAPEUTICS, published 2024)
# B1: A1,2X4-MMAE ADC (antibody, V domains shown)
# VH: QVQLQESGPGLVKPSETLSLTCTVSGFSLTSYGVNWIRQPPGKGLEWIGVMWAGGSTNYNSALMSRLTISKDTSKNQFSLKLSSVTAADTAVYYCARDENWDGAWFAYWGQGTLVTVSS
# VL: DIVMTQSPDSLAVSLGERATINCKSSQSLLNSGTRKNYLAWYQQKPGQPPKLLISWASSRESGVPDRFSGSGSGTDFTLTISSLQAEDVAVYYCKQSYNLFTFGGGTKVEIK
# modifications: MMAE-linker conjugated to the antibody; positions not given
# Molecular target: T1, human Trop-2 (human, UniProt P09758 27-323)
# T1 sequence (looked up): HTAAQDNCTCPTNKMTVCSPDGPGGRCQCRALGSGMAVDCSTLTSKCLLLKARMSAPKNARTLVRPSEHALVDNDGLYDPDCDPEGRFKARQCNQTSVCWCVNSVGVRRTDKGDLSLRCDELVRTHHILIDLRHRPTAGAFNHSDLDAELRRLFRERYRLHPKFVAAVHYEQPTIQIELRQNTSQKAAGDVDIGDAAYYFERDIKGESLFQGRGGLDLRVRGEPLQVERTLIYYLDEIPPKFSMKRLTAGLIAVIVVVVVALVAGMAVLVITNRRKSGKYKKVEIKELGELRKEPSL
# Assay: cell-based or functional assay
binder,measurement,value
B1,"IC50 (nM), in vitro cytotoxicity assay on MDA-MB-468 cells",0.389 nM
